T1: GST-human NOGO-A56 (human, UniProt Q9NQC3 586-785)
T1 construct: also called hNOGO; recombinant human NOGO; not shown: Glutathione S-transferase (GST) tag encoded by vector pGEX-6P1, N-terminal to the NOGO-A fragment; the tag and linker se
T1 sequence: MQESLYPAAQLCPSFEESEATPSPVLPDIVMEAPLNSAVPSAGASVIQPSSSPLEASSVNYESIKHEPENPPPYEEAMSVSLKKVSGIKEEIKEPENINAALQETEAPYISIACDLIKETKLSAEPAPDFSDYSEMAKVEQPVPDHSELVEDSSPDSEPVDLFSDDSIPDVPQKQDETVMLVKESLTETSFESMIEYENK


Key:
[1] = target: T1, GST-human NOGO-A56; assay: SPR (Biacore 3000), GST-human NOGO-A56 on CM5 chip, antibody as analyte; single experiment
Experimental: (§1) The binding kinetics of the anti-NOGO monoclonal antibody (mAb) to recombinantly expressed human NOGO-A (GST-human NOGO-A56) was analysed using the Biacore3000 biosensor. The hNOGO-A chip was prepared as follows:
(§2) hNOGO (GST-human NOGO-A56) was immobilised to a CM5 chip by primary amine coupling using the Biacore Wizard program designed for targeted immobilisation levels. The CM5 sensor surface was activated by passing a solution of 50 mM N-hydroxy-succinimide (NHS) and 200 mM N-ethyl-N′-dimethylaminopropyl […] (EDC). Then hNOGO in sodium acetate buffer, pH5.0 or pH 4.5, was passed over the chip and immobilised. After immobilisation was complete any still activated esters were blocked by an injection of 1M ethanolamine hydrochloride, pH8.5.
(§3) The anti-NOGO mAbs were diluted down in HBS-EP (10 mM HEPES, pH 7.4, 150 mM NaCl, 3 mM EDTA, and 0.005% P-20 surfactant) and binding studies were carried out at range of defined antibody concentrations. All runs were referenced against a blanked sensor surface (one that had been activated and blocked as described earlier but had no addition of ligand). Analysis of binding was carried out using the BIAevaluation kinetic analysis software version 4.1. Biacore analysis of other antibodies of the invention essentially followed the same protocol as described herein.

[2] = target: T1, GST-human NOGO-A56; assay: SPR (Biacore 3000), GST-human NOGO-A56 amine-coupled to CM5 chip, antibody as analyte; mean (SD) of four experiments
Experimental: as §1, §2, §3

[3] = target: T1, GST-human NOGO-A56; assay: SPR off-rate ranking (Biacore), CHO-K1 transfection supernatant over GST-human NOGO-A56 chip; mean (SD) of three experiments
Experimental: as §2
(§4) The hNOGO chip was prepared as for kinetic analysis. Cell supernatants where taken directly from transient transfections of CHO—K1 cells. These were passed directly over the sensor surface and the interaction measured. A mock transfected cell supernatant was used for double referencing to remove any artefacts due to the tissue culture media. All runs were referenced against a blanked sensor surface (one that had been activated and blocked as described earlier but had no addition of ligand). Analysis of binding was carried out using the BIAevaluation kinetic analysis software version 4.1.

[4] = target: T1, GST-human NOGO-A56; assay: SPR off-rate ranking (Biacore), CHO-K1 transfection supernatant over GST-human NOGO-A56 chip; mean (SD) of two experiments
Experimental: as §2, §4

[5] = target: T1, GST-human NOGO-A56; assay: SPR (Biacore 3000), GST-human NOGO-A56 on CM5 chip, antibody as analyte; single experiment; remark: listed apart in the source
Experimental: as §1, §2, §3

[6] = target: T1, GST-human NOGO-A56; assay: SPR (Biacore 3000), GST-human NOGO-A56 on CM5 chip, antibody as analyte; mean (SD) of two experiments
Experimental: as §1, §2, §3

[7] = target: T1, GST-human NOGO-A56; assay: SPR (BiaCore kinetic analysis), told in the summary section

Row | koff [1] | kon [1] | Kd [2] | koff [2] | kon [2] | koff [3] | Kd [1] | koff [4] | Kd [5] | koff [5] | kon [5] | Kd [6] | koff [6] | kon [6] | Kd [7] | Binder
1 | 0.0284 s⁻¹ | 1.33e+06 M⁻¹ s⁻¹ | 18.6 nM | 0.0314 s⁻¹ | 1.73e+06 M⁻¹ s⁻¹ | 0.0403 s⁻¹ |  |  |  |  |  |  |  |  |  | H1L11 (antibody, human IgG1, kappa, V domains shown, human gamma-1 mutated constant region, human kappa) VH: QVQLVQSGAEVKKPGASVKVSCKASGYTFTSYWMHWVRQAPGQGLEWMGNINPSNGGTNYNEKFKSRVTMTRDTSTSTVYMELSSLRSEDTAVYYCELGQGYWGQGTLVTVSS VL: DIVITQSPLSLPVTLGQPASISCRSSKSLLYKDGKTYLNWFQQRPGQSPQLLIYLMSTRASGVPDRFSGGGSGTDFTLKISRVEAEDVGVYYCQQLVEYPLTFGQGTKLEIKR
2 | 0.00569 s⁻¹ | 5.47e+06 M⁻¹ s⁻¹ | 1.26 nM | 0.00554 s⁻¹ | 4.37e+06 M⁻¹ s⁻¹ | 0.00664 s⁻¹ | 1 nM |  |  |  |  |  |  |  |  | H16L16 (antibody, human IgG1, kappa, Humanised 2A10; human gamma-1 mutated constant region, human kappa; also called H16L16 FL) heavy: not shown light: DIVMTQSPLSNPVTLGQPVSISCRSSKSLLYKDGKTYLNWFLQRPGQSPQLLIYLMSTRASGVPDRFSGGGSGTDFTLKISRVEAEDVGVYYCQQLVEYPLTFGQGTKLEIKRTVAAPSVFIFPPSDEQLKSGTASVVCLLNNFYPREAKVQWKVDNALQSGNSQESVTEQDSKDSTYSLSSTLTLSKADYEKHKVYACEVTHQGLSSPVTKSFNRGEC
3 |  |  | 1.62 nM | 0.00586 s⁻¹ | 3.64e+06 M⁻¹ s⁻¹ |  |  | 0.00687 s⁻¹ |  |  |  |  |  |  |  | H18L16 (antibody, human IgG1, kappa, V domains shown, Humanised 2A10; human gamma-1 mutated constant region, human kappa; also called H18L16 FL) VH: QVQLVQSGAEVVKPGASVKLSCKASGYTFTSYWMHWVKQRPGQGLEWIGNINPSNGGTNYNEKFKSKATLTVDKSSSTAYMELSSLRSEDSAVYYCELGQGYWGQGTLVTVSS VL: DIVMTQSPLSNPVTLGQPVSISCRSSKSLLYKDGKTYLNWFLQRPGQSPQLLIYLMSTRASGVPDRFSGGGSGTDFTLKISRVEAEDVGVYYCQQLVEYPLTFGQGTKLEIKR
4 | 0.013 s⁻¹ | 1.77e+06 M⁻¹ s⁻¹ | 7.68 nM | 0.0137 s⁻¹ | 1.82e+06 M⁻¹ s⁻¹ | 0.0173 s⁻¹ | 7.3 nM |  | 7.9 nM | 0.0233 s⁻¹ | 2.95e+06 M⁻¹ s⁻¹ |  |  |  |  | H6L13 (antibody, human IgG1, kappa, V domains shown, Humanised 2A10; human gamma-1 mutated constant region, human kappa; also called H6L13 FL) VH: QVQLVQSGAEVKKPGASVKVSCKASGYTFTSYWMHWVRQAPGQGLEWIGNINPSNGGTNYNEKFKSRATMTRDTSTSTAYMELSSLRSEDTAVYYCELGQGYWGQGTLVTVSS VL: DIVMTQSPLSLPVTLGQPASISCRSSKSLLYKDGKTYLNWFQQRPGQSPQLLIYLMSTRASGVPDRFSGGGSGTDFTLKISRVEAEDVGVYYCQQLVEYPLTFGQGTKLEIKR
5 |  |  | 1.33 nM | 0.00552 s⁻¹ | 4.18e+06 M⁻¹ s⁻¹ | 0.00609 s⁻¹ |  |  |  |  |  |  |  |  |  | H16L18 (antibody, human IgG1, kappa, V domains shown, Humanised 2A10; human gamma-1 mutated constant region, human kappa; also called H16L18 FL) VH: QVQLVQSGAEVKKPGASVKVSCKASGYTFTSYWMHWVKQRPGQGLEWIGNINPSNGGTNYNEKFKSKATLTVDKSTSTAYMELSSLRSEDTAVYYCELGQGYWGQGTLVTVSS VL: DIVMTQDPLSNPVTLGQPVSISCRSSKSLLYKDGKTYLNWFLQRPGQSPQLLIYLMSTRASGVSDRFSGSGSGTDFTLKISRVEAEDVGVYYCQQLVEYPLTFGQGTKLEIKR
6 | 0.00412 s⁻¹ | 2.62e+06 M⁻¹ s⁻¹ | 1.41 nM | 0.00378 s⁻¹ | 2.7e+06 M⁻¹ s⁻¹ |  | 1.6 nM | 0.00376 s⁻¹ |  |  |  | 0.995 nM | 0.00346 s⁻¹ | 3.52e+06 M⁻¹ s⁻¹ |  | HcLc (chimera of 2A10: murine 2A10 VH and VL with human IgG constant regions) (antibody, V domains shown, also called 2A10 chimeric antibody; the chimera) VH: QVQLQQPGTELVKPGASVKLSCKASGYTFTSYWMHWVKQRPGQGLEWIGNINPSNGGTNYNEKFKSKATLTVDKSSSTAYMQLSSLTSEDSAVYYCELGQGYWGQGTLVTVSS VL: DIVITQDELSNPVTSGESVSISCRSSKSLLYKDGKTYLNWFLQRPGQSPQLLIYLMSTRASGVSDRFSGSGSGTDFTLEISRVKAEDVGVYYCQQLVEYPLTFGAGTKLELKR
7 |  |  |  |  |  |  |  |  |  |  |  |  |  |  | ~1 nM | murine monoclonal antibody 2A10 (antibody, V domains shown, Murine antibody; also called donor antibody) VH: QVQLQQPGTELVKPGASVKLSCKASGYTFTSYWMHWVKQRPGQGLEWIGNINPSNGGTNYNEKFKSKATLTVDKSSSTAYMQLSSLTSEDSAVYYCELGQGYWGQGTTLTVSS VL: DIVITQDELSNPVTSGESVSISCRSSKSLLYKDGKTYLNWFLQRPGQSPQLLIYLMSTRASGVSDRFSGSGSGTDFTLEISRVKAEDVGVYYCQQLVEYPLTFGAGTKLELK

— patent publication US20110054149A1 (published 2011)
